Data as given in patent publication US5885797.

Key:
[1] = target: Myf5 (full length, mouse) (mouse) (UniProt P24699)
[2] = target: Myf5 (full length, mouse) (mouse) (UniProt P24699); remark: listed apart in the source
[3] = target: MyoD (full length, mouse) (mouse) (UniProt P10085)
[4] = target: Myogenin (full length, mouse) (mouse) (UniProt P12979)
[5] = target: Myf5 (full length, mouse) (mouse) (UniProt P24699); remark: listed apart in the source
[6] = target: Myogenin (full length, mouse) (mouse) (UniProt P12979); remark: listed apart in the source
NLSMyf5 (mouse) = NLSMyf5 (mouse) (UniProt P24699)
NLSMyogenin (mouse) = NLSMyogenin (mouse) (UniProt P12979)
E12 [7] = target: E12
E12 [8] = experiment: yeast one-hybrid, strain L40, β-galactosidase reporter
[9] = target: T1, Lethal of Scute (AS-C T3) (Drosophila melanogaster (Fruit fly)) (UniProt P09774); experiment: as above
T1 sequence: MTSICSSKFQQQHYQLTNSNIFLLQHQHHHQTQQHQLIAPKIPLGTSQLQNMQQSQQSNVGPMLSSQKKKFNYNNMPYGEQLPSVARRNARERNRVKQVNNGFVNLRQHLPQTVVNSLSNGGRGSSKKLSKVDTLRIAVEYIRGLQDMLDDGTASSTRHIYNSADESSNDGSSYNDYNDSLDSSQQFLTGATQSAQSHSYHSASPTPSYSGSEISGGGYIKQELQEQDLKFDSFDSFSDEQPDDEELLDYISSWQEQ

[10] = target: Myf5 (full length, mouse) (mouse) (UniProt P24699); experiment: as above
[11] = target: MyoD (full length, mouse) (mouse) (UniProt P10085); experiment: as above
[12] = target: MyoDΔC-VP16 (Mus musculus (Mouse)) (UniProt P10085); experiment: yeast two-hybrid, strain L40, β-galactosidase reporter
[13] = target: MyoDΔN-VP16 (Mus musculus (Mouse)) (UniProt P10085); experiment: as above

Chain of LexA (P0A7C2 whole entry): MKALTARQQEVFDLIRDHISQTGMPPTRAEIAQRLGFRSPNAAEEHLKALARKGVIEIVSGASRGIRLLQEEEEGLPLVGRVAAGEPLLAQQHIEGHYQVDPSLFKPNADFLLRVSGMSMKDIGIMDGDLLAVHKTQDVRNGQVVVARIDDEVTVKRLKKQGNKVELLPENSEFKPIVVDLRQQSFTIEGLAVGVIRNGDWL

What does the source list for HA-I-mfa?
CAT (%) +Myf5, p4R-TK-CAT reporter, NIH3T3 [1]: 2%; Relative CAT Activity (%), p4R-TK-CAT, NIH3T3 [2]: 0.9%; Relative CAT Activity (%), p4R-TK-CAT, NIH3T3 [3]: 10.6%; Relative CAT Activity (%), p4R-TK-CAT, NIH3T3 [4]: 1.5%; Relative CAT Activity (%), experiment of Table 7 [5]: 0.1%; Relative CAT Activity (%), experiment of Table 7 [6]: 0.6%; Relative CAT Activity (%), experiment of Table 7 (NLSMyf5 (mouse)): 3.7%; Relative CAT Activity (%), experiment of Table 7 (NLSMyogenin (mouse)): 7.5%

What does the source list for HA-I-mfa (1-202)?
CAT (%) +E12, p4R-TK-CAT reporter, NIH3T3 (E12 [7]): 113%; CAT (%) +Myf5, p4R-TK-CAT reporter, NIH3T3 [1]: 5%

Which CAT (%) +E12, p4R-TK-CAT reporter, NIH3T3 (E12 [7]) does the source give for HA-I-mfa (29-246) here?
The CAT (%) +E12, p4R-TK-CAT reporter, NIH3T3 was 81%.

What about the CAT (%) +Myf5, p4R-TK-CAT reporter, NIH3T3 [1] of the same substance?
The CAT (%) +Myf5, p4R-TK-CAT reporter, NIH3T3 was 4%.

For HA-I-mfa (87-202), which CAT (%) +E12, p4R-TK-CAT reporter, NIH3T3 (E12 [7]) is on record?
Its CAT (%) +E12, p4R-TK-CAT reporter, NIH3T3 is 89%.

And the CAT (%) +Myf5, p4R-TK-CAT reporter, NIH3T3 [1]?
The CAT (%) +Myf5, p4R-TK-CAT reporter, NIH3T3 was 7%.

HA-I-mfa (87-246) was tested. Which CAT (%) +E12, p4R-TK-CAT reporter, NIH3T3 (E12 [7]) did it give?
Its CAT (%) +E12, p4R-TK-CAT reporter, NIH3T3 is 53%.

And the CAT (%) +Myf5, p4R-TK-CAT reporter, NIH3T3 [1]?
Its CAT (%) +Myf5, p4R-TK-CAT reporter, NIH3T3 is 2%.

Which CAT (%) +E12, p4R-TK-CAT reporter, NIH3T3 (E12 [7]) does the source give for HA-I-mfa (163-202) here?
Its CAT (%) +E12, p4R-TK-CAT reporter, NIH3T3 is 98%.

What about the CAT (%) +Myf5, p4R-TK-CAT reporter, NIH3T3 [1] of the same substance?
Its CAT (%) +Myf5, p4R-TK-CAT reporter, NIH3T3 is 44%.

HA-I-mfa (163-246) was tested. Which CAT (%) +E12, p4R-TK-CAT reporter, NIH3T3 (E12 [7]) did it give?
Its CAT (%) +E12, p4R-TK-CAT reporter, NIH3T3 is 18%.

What about the CAT (%) +Myf5, p4R-TK-CAT reporter, NIH3T3 [1] of the same substance?
The CAT (%) +Myf5, p4R-TK-CAT reporter, NIH3T3 was 2%.

For HA-I-mfa (203-246), which CAT (%) +E12, p4R-TK-CAT reporter, NIH3T3 (E12 [7]) is on record?
Its CAT (%) +E12, p4R-TK-CAT reporter, NIH3T3 is 93%.

And the CAT (%) +Myf5, p4R-TK-CAT reporter, NIH3T3 [1]?
Its CAT (%) +Myf5, p4R-TK-CAT reporter, NIH3T3 is 78%.

For HA-I-mfb, which CAT (%) +E12, p4R-TK-CAT reporter, NIH3T3 (E12 [7]) is on record?
The CAT (%) +E12, p4R-TK-CAT reporter, NIH3T3 was 100%.

And the CAT (%) +Myf5, p4R-TK-CAT reporter, NIH3T3 [1]?
Its CAT (%) +Myf5, p4R-TK-CAT reporter, NIH3T3 is 74.5%.

What about the Relative CAT Activity (%), p4R-TK-CAT, NIH3T3 [2] of the same substance?
Its Relative CAT Activity (%), p4R-TK-CAT, NIH3T3 is 94.8%.

And the Relative CAT Activity (%), p4R-TK-CAT, NIH3T3 [3]?
Its Relative CAT Activity (%), p4R-TK-CAT, NIH3T3 is 96.5%.

What about the Relative CAT Activity (%), p4R-TK-CAT, NIH3T3 [4] of the same substance?
The Relative CAT Activity (%), p4R-TK-CAT, NIH3T3 was 82.7%.

What does the source list for HA-I-mfc?
CAT (%) +E12, p4R-TK-CAT reporter, NIH3T3 (E12 [7]): 99%; CAT (%) +Myf5, p4R-TK-CAT reporter, NIH3T3 [1]: 65%; Relative CAT Activity (%), p4R-TK-CAT, NIH3T3 [2]: 96.4%; Relative CAT Activity (%), p4R-TK-CAT, NIH3T3 [3]: 96.1%; Relative CAT Activity (%), p4R-TK-CAT, NIH3T3 [4]: 68%

For LexA (from UniProt P0A7C2), which β-galactosidase activity (arbitrary units) (E12 [8]) is on record?
The β-galactosidase activity (arbitrary units) was 2.3.

And the β-galactosidase activity (arbitrary units) [9]?
Its β-galactosidase activity (arbitrary units) is 1.6.

And the β-galactosidase activity (arbitrary units) [10]?
The β-galactosidase activity (arbitrary units) was 0.9.

And the β-galactosidase activity (arbitrary units) [11]?
The β-galactosidase activity (arbitrary units) was 0.6.

And the β-galactosidase activity (arbitrary units) [12]?
The β-galactosidase activity (arbitrary units) was 0.6.

What about the β-galactosidase activity (arbitrary units) [13] of the same substance?
Its β-galactosidase activity (arbitrary units) is 0.9.
